We go through 6 substances from publication doi:10.1101/2024.01.08.574586.

The target of this assay is recombinant biotinylated HIP1 protein (UniProt O00291). The assay can be described thus: SPR. (In SPR one partner is held on a chip, and binding of the other changes the refractive index at the surface.)
UniProt O00291, sequence (O00291 whole entry): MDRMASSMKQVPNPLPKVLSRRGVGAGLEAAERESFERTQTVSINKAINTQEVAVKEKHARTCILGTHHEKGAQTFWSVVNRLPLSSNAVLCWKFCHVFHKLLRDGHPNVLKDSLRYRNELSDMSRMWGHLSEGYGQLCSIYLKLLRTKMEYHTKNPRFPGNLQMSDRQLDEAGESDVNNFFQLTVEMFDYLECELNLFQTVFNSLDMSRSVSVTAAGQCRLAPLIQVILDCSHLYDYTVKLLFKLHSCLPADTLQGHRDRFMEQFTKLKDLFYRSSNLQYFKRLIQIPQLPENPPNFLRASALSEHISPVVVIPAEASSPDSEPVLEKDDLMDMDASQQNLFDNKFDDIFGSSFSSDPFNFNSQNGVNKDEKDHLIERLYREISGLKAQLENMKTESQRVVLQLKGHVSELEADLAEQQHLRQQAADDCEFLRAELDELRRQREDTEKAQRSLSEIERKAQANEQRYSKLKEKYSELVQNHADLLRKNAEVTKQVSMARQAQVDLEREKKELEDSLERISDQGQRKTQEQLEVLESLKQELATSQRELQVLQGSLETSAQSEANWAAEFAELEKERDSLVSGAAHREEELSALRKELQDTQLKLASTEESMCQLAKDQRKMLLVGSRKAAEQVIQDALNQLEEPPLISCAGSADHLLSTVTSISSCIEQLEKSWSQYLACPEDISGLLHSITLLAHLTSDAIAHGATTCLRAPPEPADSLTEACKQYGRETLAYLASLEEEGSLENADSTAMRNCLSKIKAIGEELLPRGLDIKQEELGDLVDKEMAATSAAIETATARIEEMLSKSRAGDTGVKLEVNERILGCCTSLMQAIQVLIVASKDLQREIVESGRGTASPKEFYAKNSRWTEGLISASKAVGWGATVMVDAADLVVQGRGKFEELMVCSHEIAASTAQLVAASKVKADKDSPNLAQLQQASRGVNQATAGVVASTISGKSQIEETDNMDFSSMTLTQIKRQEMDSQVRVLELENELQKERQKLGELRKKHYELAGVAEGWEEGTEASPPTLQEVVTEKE

In general, Kd refers to a measure of binding affinity in units of concentration. For “K48-linked Ub2 (SPR analyte) (from UniProt P0CG48)”, the equilibrium dissociation constant (Kd) stood at 137 µM.

As for “K48-linked Ub3 (SPR analyte) (from UniProt P0CG48)”, the Kd stood at 66.2 µM.

On to “K48/K63-linked branched Ub3 (SPR analyte) (from UniProt P0CG48)”, for which the Kd was 0.07 µM.

As to “K63-linked Ub2 (SPR analyte) (from UniProt P0CG48)”, the Kd came out at 1.89 µM.

On to “K63-linked Ub3 (SPR analyte) (from UniProt P0CG48)”, for which the Kd turned out to be 1.55 µM.

On to “mono Ub (SPR analyte) (from UniProt P0CG48 1-76) (natural protein)”, for which the Kd is 197 µM.
